For orientation: IC50 means the point on the concentration scale where inhibition reaches its midpoint. Higher therefore signals weaker potency in that assay.

This passage reports IC50 results from patent publication US20240067729A1 (published 2024).

B1: 769-hIgG1 (chimeric PAL769) (antibody, V domains shown)
VH: EVQLQESGAELVKPGASVTLSCTASGFNIKDTYMHWVKQRPEQGLEWIGRIDPANDNTKYDPKFQDKATITADTSSDTAYLRLSSLTSEDTAVYYCAREGYGGSYGEGYWGQGTTLTVSS
VL: SIVMTQTPKFLLVSAGDRVTITCKASQSVSNDVIWYQQKPGQSPKLLIYYASIRFTGVPDRFAGSGYGTDFTFTINTVQAEDLAVYFCQQDYNSPWTFGGGTKLEIK
B2: h769-tm2 (humanized 769-hIgG1 variant) (antibody, V domains shown)
VH: EVQLVQSGAEVKKPGATVKISCKVSGFNIKDTYMHWVQQAPGKGLEWMGLIDPANDNTIYAEKFQGRVTITADTSTDTAYMELSSLRSEDTAVYYCAREGYGGSYGEGYWGQGTLVTVSS
VL: EIVMTQSPPTLSLSPGERVTLSCRASQSVSNDLSWYQQKPGQAPRLLIYYASIRFTGIPARFSGSGYGTDFTLTISSLQPEDFAVYYCQQDYNSPWTFGQGTKVEIK
B3: h769-tm3 (humanized 769-hIgG1 variant) (antibody, V domains shown)
VH: EVQLVQSGAEVKKPGATVKISCKVSGFNIKDTYMHWVQQAPGKGLEWMGLIDPANDNTIYAEKFQGRVTITADTSTDTAYMELSSLRSEDTAVYYCAREGYGGSYGEGYWGQGTLVTVSS
VL: EIVMTQSPPTLSLSPGERVTLSCRASQSVSNDLSWYQQKPGQAPRLLIYYASIRFTGIPARFSGSGSGTDFTLTISSLQPEDFAVYFCQQDYNSPWTFGQGTKVEIK
B4: h769-IF3 (humanized 769-hIgG1 variant) (antibody, V domains shown)
VH: EVQLVQSGAEVKKPGATVKISCKVSGFNIKDTYMHWVQQAPGKGLEWMGLIDPANDNTIYAEKFQGRVTITADTSTDTAYMELSSLRSEDTAVYYCAREGYGGSYGEGYWGQGTLVTVSS
VL: EIVMTQSPPTLSLSPGERVTLSCRASQSVSNDLSWYQQKPGQAPRLLIYYASIRFTGIPARFSGSGSGTDFTLTISSLQPEDFAVYYCQQDYNSPWTFGQGTKVEIK
B5: PAL771.2 (antibody, V domains shown)
VH: EVQLQESGAELVKPGASVKLSCTASGFNIKDTYMHWVKQRPEQGLEWIGRIDPANGNTKYDPKFPGKATITADTSSNTAYLQLSSLTSEDAAVYYCARPFNYRFYDVYYFDYWGQGTTLTVST
VL: QIVLTQSPAIMSASPGEKVTMTCSASSSVSYMYWYQQKPGSSPRLLIYDTSNLASGVPLRFSGSGSGTSYSLTLSRMEAEDAATYYCQQWSTYPLTFGAGTKLELK
B6: 785-hIgG1 (chimeric PAL785) (antibody, V domains shown)
VH: EVQLQESGPELVKPGTSVKMSCKASGYTFTSYVMHWVKQRPGQGLEWIGYINPYNDGSKYNEKFKGKATLTSDTSSSTAYMELSSLTSEDSAVYYCAKQTLDFWGQGTSVTVST
VL: DIVLTQSPASLAVSLGQRATISCRASESVEFYGTTLMQWYQQKPGQPPKLLIYAASNVESGVPARFSGSGSGTDFSLNIHPVEEGDIGMYFCQQSRKVPYTFGGGTKLEIK
B7: 752-hIgG1 (chimeric PAL752) (antibody, V domains shown)
VH: EVQLQESGAELARPGASVKLSCKASGHAFTSDSINWVKQRIGQGLEWIGEIYPRSGNPYYNEKFKGKATLTADKSSSTAYMELRSLTSEDSAVYFCATDYYGRYFDVWGTGTTVTVSS
VL: DIQMTQSSFSFSVSLGDRVTIICKASEDIYNRLAWYQQKPGNTPRLLISGATSLETGVPSRFSGSGSGKDYTLSITSLQTEDVATYYCQQYWSTPWTFGGGTKLEIK
B8: 767-hIgG1 (chimeric PAL767) (antibody, V domains shown)
VH: EVQLQESGPSLVKPSQTLSLTCSVTGDSITSGYWNWIRKFPGNKLEYMGYISYTGSTYYNPSLKRRISITRDTSKNQYYLQLNSVTTEDTATYYCASQGGWLQAMDYWGQGTSVTVSS
VL: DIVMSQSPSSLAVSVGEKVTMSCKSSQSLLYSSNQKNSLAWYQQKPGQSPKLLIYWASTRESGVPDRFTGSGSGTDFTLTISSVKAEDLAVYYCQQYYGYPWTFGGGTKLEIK
B9: 788-hIgG1 (chimeric PAL788) (antibody, V domains shown)
VH: QVQLQQPGAELVKPGASVKLSCKASGYTFTSNWMNWVKQRPGRGLEWIGRIHPSDSETHYHQKFKSKATLTVDKSSSTAYIQLSSLTSEDSAVYYCAHSSGDYGRDYWGQGTTLTVSS
VL: NIVLTQSPASLAVSLGQRATISCRASESVDSYGNSFMHWYQQKPGQPPKLLIYLASNLQSGVPARFSGSGSRTDFTLTIDPVEADDAATYYCQQNNEDPWTFGGGTKLEIK

T1 sequence (Q9NZQ7 19-238): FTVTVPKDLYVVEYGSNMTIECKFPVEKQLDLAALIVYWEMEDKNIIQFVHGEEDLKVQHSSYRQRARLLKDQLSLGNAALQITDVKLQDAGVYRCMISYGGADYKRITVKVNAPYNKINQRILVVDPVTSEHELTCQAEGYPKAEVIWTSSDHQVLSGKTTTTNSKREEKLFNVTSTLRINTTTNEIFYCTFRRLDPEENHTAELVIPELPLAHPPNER

One test concerns the target T1, human PD-L1 (hPD-L1) coated on ELISA wells, Example 7 (human, UniProt Q9NZQ7 19-238). Briefly: blocking ELISA (hPD1-Fc binding). (In general: ELISA stands for enzyme-linked immunosorbent assay.)
B1: the half-maximal inhibitory concentration (IC50) was found to be 1.57 nM.

B2 came in with an IC50 of 1.44 nM.

Molecule B3 showed an IC50 of 1.29 nM. This IC50 and that of the molecule before are within 1.5-fold of each other.

Take B4: the IC50 was 1.47 nM. This IC50 and that of the molecule before are within 1.5-fold of each other.

The target of another test is T1, human PD-L1 (hPD-L1) coated on ELISA …. Briefly: huPD1-Fc blocking ELISA.
B5 returned an IC50 of 0.6 nM.

A further test has the same target. Briefly: Blocking ELISA.
B6 gave a half-inhibitory concentration (IC50) of 1.94 nM.

B7: the half-maximal inhibitory concentration (IC50) came out at 4.64 nM.

Regarding B8, the half-inhibitory concentration (IC50) came to 2.01 nM.

In turn, B1 registered a 50% inhibitory concentration (IC50) of 1.58 nM. This IC50 and that of the molecule before are within 1.5-fold of each other.

In turn, B9 displayed an IC50 of 2.93 nM. This IC50 is about 1.9-fold higher than that of the molecule before.
